Data from the supplement of paper PMC9170038.

System: K4 kissing-loop RNA reporter
Experiment: apparent KD of K4 kissing-loop reporter; higher = weaker reporter binding
Conditions: Eterna round: R107
Description: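 RNA-MaP round R107: designed RNA switches with theophylline, tryptophan, arginine or FMN aptamers are transcribed on-chip within common flanks. They are titrated with a labelled K4 kissing-loop RNA reporter in RNA-MaP buffer (100 mM Tris pH 7.5, 80 mM KCl, 4 mM MgCl2), without ligand or with the indicated ligand. Median apparent KD per design.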

[1] = input ligand: theophylline 20 uM
[2] = input ligand: tryptophan 2.4 mM
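Note: bound reporter read as fluorescence of individual clusters on recovered sequencing chips by microscopy, with normalized cluster intensities fitted with a binding model.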

UGACUGGACUGAAGGAGCGCGAAACUCCUAGUGAUGUUAGGAUAACGAGACAAAGUCUCGACGCAGGUAGGUCGCAGUCUAGUCU
apparent KD of K4 kissing-loop reporter (input ligand: FMN 200 uM): 130 nM
apparent KD of K4 kissing-loop reporter (input ligand: arginine 13.2 mM): 92.6 nM
apparent KD of K4 kissing-loop reporter (input ligand: none): 116 nM
apparent KD of K4 kissing-loop reporter [1]: 119 nM
apparent KD of K4 kissing-loop reporter [2]: 120 nM

UGUUUUUACUGAAGGAGCGGCAAUUGAUACGUAGAUAUAGUGAUGUUAUAUAAGAUAGAGAGCCAGGUAGGUCGCAGAGUGUAUC [ExArgB.aB]
apparent KD of K4 kissing-loop reporter (input ligand: FMN 200 uM): 217 nM
apparent KD of K4 kissing-loop reporter (input ligand: arginine 13.2 mM): 188 nM
apparent KD of K4 kissing-loop reporter (input ligand: none): 207 nM
apparent KD of K4 kissing-loop reporter [1]: 172 nM
apparent KD of K4 kissing-loop reporter [2]: 213 nM

UUUCGGCUCUGAGGAUAUUCGGACAAAUAUAGUGAUGUUGUAUAAGGAGGAGGGUGUUGGCAGUGAGGAGAAGGCAGAGGAGGAU [#07 K4 FMN B Exclusion]
apparent KD of K4 kissing-loop reporter (input ligand: FMN 200 uM): 376 nM
apparent KD of K4 kissing-loop reporter (input ligand: arginine 13.2 mM): 208 nM
apparent KD of K4 kissing-loop reporter (input ligand: none): 397 nM
apparent KD of K4 kissing-loop reporter [1]: 358 nM
apparent KD of K4 kissing-loop reporter [2]: 214 nM

UUACUACCCAGUGAUGUUGGGUAGCGGCGGCGAGGACCGGUACGGCCGCCACUCGGCGCACGGGAGUGAUGUUCCUACCGUUAGG [Same state Tryptophan A GF 8]
apparent KD of K4 kissing-loop reporter (input ligand: FMN 200 uM): 514 nM
apparent KD of K4 kissing-loop reporter (input ligand: arginine 13.2 mM): 455 nM
apparent KD of K4 kissing-loop reporter (input ligand: none): 604 nM
apparent KD of K4 kissing-loop reporter [1]: 747 nM
apparent KD of K4 kissing-loop reporter [2]: 294 nM

ACCUACGAUCACAAUAGUGAUUGUAGGAACUAGGAUAUGCUGAAAAGCAGAAGGAGUGAUGUUCCAACUCAUGAAUAACAUGAGA [FmnAX 2 #OpenEnded #K4Late]
apparent KD of K4 kissing-loop reporter (input ligand: FMN 200 uM): 536 nM
apparent KD of K4 kissing-loop reporter (input ligand: arginine 13.2 mM): 252 nM
apparent KD of K4 kissing-loop reporter (input ligand: none): 249 nM
apparent KD of K4 kissing-loop reporter [1]: 274 nM
apparent KD of K4 kissing-loop reporter [2]: 198 nM

AAACGUUGGUGCGAUACCAGCUGAUCGGAAACGAUCUUGCUGGAGUGAUGUUCCAAGUAAAGCCCUUGGCAGCGCACCGACGAAA [MAT - Same State Theophlline B - Mod of Eli - D22]
apparent KD of K4 kissing-loop reporter (input ligand: FMN 200 uM): 92.5 nM
apparent KD of K4 kissing-loop reporter (input ligand: arginine 13.2 mM): 58.4 nM
apparent KD of K4 kissing-loop reporter (input ligand: none): 86.5 nM
apparent KD of K4 kissing-loop reporter [1]: 145 nM
apparent KD of K4 kissing-loop reporter [2]: 69.3 nM

AGGCCCGGCCGAAAGGCCGGGCCAAGAGAUACCAGCAGCGAAAGCUGCCCUUGGCAGCUCACUUAGUGAUGUUAAGAAUAGAACA [SS Theo A Tesla 1]
apparent KD of K4 kissing-loop reporter (input ligand: FMN 200 uM): 538 nM
apparent KD of K4 kissing-loop reporter (input ligand: arginine 13.2 mM): 464 nM
apparent KD of K4 kissing-loop reporter (input ligand: none): 375 nM
apparent KD of K4 kissing-loop reporter [1]: 485 nM
apparent KD of K4 kissing-loop reporter [2]: 390 nM

AAUGGGUGAUAAGGAUAUCCACCUCACAAACCAAGAGUGAUGUUCGUUGGUCCAUGGACAAUAUGUGGAGAAGGUAUAGUGAUUA [theeternabot_exclusion_KL_FMN_B_48]
apparent KD of K4 kissing-loop reporter (input ligand: FMN 200 uM): 855 nM
apparent KD of K4 kissing-loop reporter (input ligand: arginine 13.2 mM): 853 nM
apparent KD of K4 kissing-loop reporter (input ligand: none): 1000 nM
apparent KD of K4 kissing-loop reporter [1]: 747 nM
apparent KD of K4 kissing-loop reporter [2]: 700 nM

UUUCGUUGAAGUGAUACCAGACUUGAAAGUGAUGUUUUCCAAUAAUUUAAAUUUUUAGCUGUCCCUUGGCAGCACAGUUUAUUUA [JR_Nu_ExcTheophyB_Sub025]
apparent KD of K4 kissing-loop reporter (input ligand: FMN 200 uM): 210 nM
apparent KD of K4 kissing-loop reporter (input ligand: arginine 13.2 mM): 363 nM
apparent KD of K4 kissing-loop reporter (input ligand: none): 275 nM
apparent KD of K4 kissing-loop reporter [1]: 401 nM
apparent KD of K4 kissing-loop reporter [2]: 181 nM

AAACUUGCAGUGAUGUUGCAAGUAGGUGAUACCAGCAUCGAAAGAUGCCCUUGGCAGCACCAUCUUGCAACAAAGGUGCUGCCAA [(H1)-(H2)-(T1)-(T2)-(H)'-(T)'_Design7]
apparent KD of K4 kissing-loop reporter (input ligand: FMN 200 uM): 87.5 nM
apparent KD of K4 kissing-loop reporter (input ligand: arginine 13.2 mM): 77.4 nM
apparent KD of K4 kissing-loop reporter (input ligand: none): 88.2 nM
apparent KD of K4 kissing-loop reporter [1]: 67.6 nM
apparent KD of K4 kissing-loop reporter [2]: 81.2 nM

AAUGUAUGGCACAUGAGUGAUGUUCAUGUCCGAGGACCGGUACGGCCGCCACUCGGUCCUGGGUUCUUAUUACUAUACAUUAAUG [KL-XTryp-A2 #analogue]
apparent KD of K4 kissing-loop reporter (input ligand: FMN 200 uM): 161 nM
apparent KD of K4 kissing-loop reporter (input ligand: arginine 13.2 mM): 133 nM
apparent KD of K4 kissing-loop reporter (input ligand: none): 149 nM
apparent KD of K4 kissing-loop reporter [1]: 169 nM
apparent KD of K4 kissing-loop reporter [2]: 289 nM
